Assay results as given in paper PMC2878485 (Structure (London, England : 1993), 2008).
Substitutions are numbered along the chain they refer to.

B1: 18 bp thiol-tethered DNA (dsDNA)
DNA 1: TACCGCAGCCATCAGAGT
DNA 2: ACTCTGATGGCTGCGGTA
modifications: single thiol tether on backbone phosphate between bases 11 and 12 of strand 1
B2: peptide corresponding to the C-terminal 22 residues of UL54 (peptide, UniProt P08546 1221-1242, looked up)
peptide: LPRRLHLEPAFLPYSVKAHECC

How the values were obtained:
UL44ΔC290 wild-type = UL44ΔC290 wild-type (Human cytomegalovirus, UniProt P16790 1-290); assay: disulfide crosslinking, nonreducing PAGE
[1] = molecular target: T1, UL44ΔC290 (wild-type; N-terminal 290 residues of human cytomegalovirus UL44) (human cytomegalovirus, UniProt P16790 1-290); assay: ITC
T1 sequence (looked up): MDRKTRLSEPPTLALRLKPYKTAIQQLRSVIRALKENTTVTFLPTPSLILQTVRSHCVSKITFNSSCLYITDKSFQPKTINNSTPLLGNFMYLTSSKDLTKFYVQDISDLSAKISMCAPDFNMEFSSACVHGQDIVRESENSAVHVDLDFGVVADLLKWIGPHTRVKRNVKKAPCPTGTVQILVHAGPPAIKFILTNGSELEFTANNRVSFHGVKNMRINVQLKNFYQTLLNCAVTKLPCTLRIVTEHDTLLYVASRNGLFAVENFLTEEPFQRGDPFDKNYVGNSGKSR

[2] = molecular target: T2, UL44ΔC290 K35A/K158A/K224A/K237A (human cytomegalovirus, UniProt P16790 1-290, K35A | K158A | K224A | K237A); assay: ITC
T2 sequence (looked up): T1 sequence (looked up) with K35A, K158A, K224A, K237A

[3] = molecular target: T3, UL44ΔC290 R165A/K167A/R168A/K171A/K172A (human cytomegalovirus, UniProt P16790 1-290, R165A | K167A | R168A | K171A | K172A); assay: ITC
T3 sequence (looked up): T1 sequence (looked up) with R165A, K167A, R168A, K171A, K172A

Binder | binding result (UL44ΔC290 wild-type) | binding result [1] | binding result [2] | binding result [3]
B1 | binds |  |  | 
B2 |  | binds | binds | binds
